Data as given in the nanobody polyreactivity screen of Harvey et al. (2022).

experiment: yeast display, Sf9 membrane polyspecificity reagent, FACS + sequencing; frameworks hold sequencing errors
How it was run: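 A nanobody's polyreactivity label depends on the gate it was sorted from. Yeast display cells were stained with 10% biotinylated, detergent-solubilized Sf9 membrane reagent for 1 hour at 4 °C, enriched on streptavidin microbeads and sorted by FACS. The low and high (top ~1%) gates were set on anti-HA fluorescence for expression and streptavidin fluorescence for reagent binding.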

| Sequence | polyreactivity (PSR sort gate) |
| --- | --- |
| QGQLVESGGGLVQAGGSLRLSCAASGSIVWYNAMGWYRQAPGKERELVAAINWSGGSTFYADSVKGRFTISRDNAKNTVYLQMYSLKPEDTAVYYCAADDWYTGYDYWGQGTQVTVSS | high polyreactivity |
| QGQLVESGGGLVQAGGSLRLSCAASGSSFPYYAMGWYRQAPGKERELVASINQSDGTTYYADSVKGRFSISRDNAKNTVYLQMNSLKPEDTAVYYCAADTTLQAFIRYSPIGSYDSWGQGTQVTVSS | low polyreactivity |
| QGQLVESGGGLVQAGGSLRLSCAASGSTFANYDMAWYRQAPGKERELVAAITSRGGSTYYADSVKGRFTISRDNAKNTVYLQMNSLKPEDTAVYYCAAVTRNQGSFRYYFWGQGTQVTVSS | high polyreactivity |
| QGQLVESGGGLVQAGGSLRLSCAASGSTFRYNTMGWYRQAPGKERELVAAISSGGGTHYADSVKGRFTISRDNAKNTVYLQMNSLKPEDTAVYYCAAQSRYRYQFYSGLEYDYWGQGTQVTVSS | low polyreactivity |
| QGQLVESGGGLVQAGGSLRLSCAASGSTFSDYAKGWYRQAPGKERELVAGITGGGGTYYADSVKGRFTISRDNAKNTVYLQMNSLKPEDTAVYYCAAGRRHGFGYWGQGTQVTVSS | low polyreactivity |
| QGQLVESGGGLVQAGGSLRLSCAASGSTFWLNAMGWYRHAPGKERELVAVITWSGDGTYYADSVKWRFTISRDNAKNTVYVQMNSLKPEDTAVYYCAKGFERYPWYDYWGQGTQVTVSS | low polyreactivity |
| QGQLVESGGGLVQAGGSLRLSCAASGSTFWRYAMGWYRQAPGKERELVAAISRSGGSTYYADSVKGRFTISRDNAKNTVYLQMHSLKPEDTAFYYCAARYPTPYRKLGSWGQGTQVSVSS | high polyreactivity |
| QGQLVESGGGLVQAGGSLRLSCAASGSTLVKYAMGTNRQAPGKERELVAAISWSGGRTDYADSVKGRFTSSRDNAKNTVYLQMNSLKPEDTAVYYCAARSTRFYTPGYYYWGQGTQVTVSS | high polyreactivity |
| QGQLVESGGGLVQAGGSLRLSCAASGSTSGKNAMGWYRQAPGQERELVAVITYSGSRTYYADSVKGRFTISRDNAKNTVYLQMNSLKPEDTAVYYCATRGLKTYQAYDYWGQGTQVTVSS | high polyreactivity |
| QGQLVESGGGLVQAGGSLRLSCSASGLIFYRYTMGWYRQAPGKEREVVAAISSGGRTYSADSVKGRFTISRDNAKNTVYLQMNSLKPEDTAVYYCATRVYSVHAPSAVPIGGYYWGQGTQVTVSS | high polyreactivity |
| QGQLVESGGGLVQAGGSLRLSSAASGRIYLTNAMGWYRPAPGKERELVAAITSGGSTYYADSVKGRFTISRDNAKNTVYLQMNSLKPEDTAVYYCNADTDRYWPYEYDYWGQGTQVTVSS | low polyreactivity |
| QGQLVESGGGLVQAGGSLRVSCAASGYTFDSYAMGLYRQAPGKERELFAAITNGGSTYYADSVKGRFTISRDNAKKTVYLQLNSLKPEDTAVYYCATDDDQLDYLYDYWGPGTQVTVSS | low polyreactivity |
| QGQLVESGGGLVQAGGSLSLSCAASGFTFRYYTMGWYIQAPGKERALVASISRRGGSTYYADSVKGRFTISRDNAMNTVYLQMHSLKPEGTAVYYCNPLSQVFASRAPKFDYWGQGTQVTVSS | high polyreactivity |
| QGQLVESGGGLVQAGGSRRLSCAASGYSIDNNAMGWYRQAPGKEREVVASITNSAGSTSYADSVKGRFTISRDTAKNTVYLQMNSLKPEDTAVCYCSAKRYHYFFQYSRSGAYGYWGHGTQVTVSS | high polyreactivity |
| QGQLVESGGGLVQARGSLRLSCAASGRIFMTYAMAWYIQAPGKERELVAAIRSPSGTTYYADSVKGRFTISRDNAKNTVYLQMNSLKPEDTAVYYCAAGGKYSSYYWGQGTQVTVSS | high polyreactivity |
| QGQLVESGGGVVQAGGSLRLSSAASRRIFYSYPLGWYRPAPGKERELVAAISSSGGITYYADSVKGRFTISRDNAKNTGSLELNSLKPEDTAVYYCAARRRYKSGYWGQGTQVTVSS | high polyreactivity |
| QGQLVESGRGLVQAGGSLSLSCAASGSTFFIYAMGWYRQAPGKERELVAAINRSGGRTYYADSVKGRFTISRYTAQNTVYLQMNSLKPEDTAVYYCAAYLGPYVRFYYWGQGTQGTVSS | high polyreactivity |
| QGQLVESVGGLVQAGGSLRLSCAASGSIFGWYVMGWYRQAPGQERELVAAISSVGSTYYADSVKGRFTISLDNAKNTVYLQMNSLKAEDTAVYYCAKLRYPYLFWDDSEYWGQGTQVTVSS | low polyreactivity |
| QGQLVETGGGLGQAGGSLRLSCAASGIIFYYYAMGWYRQAPGKERELVAAITGTGSRTYYADSVKGRFTISRDNAKNTVYIQMNSLKPEDTAVYYCYARSFATCSKVPARGYWGQGTQVTVSS | high polyreactivity |
| QGQLVVSGGGLVQAGGSLRLSCAASGRTFYWNAMGWSIQAPGKERELFASINGGGSTYYADSVKGRFTISRDNAKNTVYLQMYSLKPEDTAVYYCNAESYEFHRAWGDYDDWGHGTQVTVSS | low polyreactivity |
| QGQRVESGGGLVQAGGSLRLSCAGSGSTCVGYTMGWYRQAPGKERELVAAITSSDGSTYYADSVKGRFTISRDNAKNTVYLQMNSQKPEDTAVYYCAQTTRYPRGYGYWGQGTQVTVSS | low polyreactivity |
| QIQLVESGGGLVQAGGILRISCAASGRTFGSNTMGWSRQAPGKERELVAAISGTGTSTYYADSVKGRFTISRDNAKNTVYLQMNILKPEDTAVFYCAAGWYKYLFQPHDYWGQGTQVTVSS | low polyreactivity |
| QIQLVESGGGLVQAGGSLRLSCAASGFTFYWYAMGWYRQAPGKEREFVAAIDQSGGSTYYADSVKGRFTISRDNAKNTVYLQMNSLKPEDTAVYYCAARYILWDGDSWTEFDYWGQGTQVTVSS | low polyreactivity |
| QLHLVESGGGLVQAGGSLRLSCAASGIIFWYNDMGWYRQAPGKESELVAAISTGGSTNYADSVKGRFTISRDNAKNTVYLQMNSLKPEDTAVYYCAGDWHRAYGGYDYWGEGTQVTVSS | low polyreactivity |
| QLKLEESGGGLVQAGGSLRLSCAASGITFPWYAMGWYRQAPGKERELVAAINRAGNTNYADSVKGRFTISRDNAKNTVYLQRNSLKTEDTAVYYCAARWRYKYTLGYWGQGTQVTVSS | high polyreactivity |
| QLQLEESGGGFVQAGGSLRISCAASGAIFLSYAMGWYRQAAAKEMEFVAGISYSGGTTYYADSVKGRFTISRDNAKNTVYLQMNSLKQEVTAVYYCAKRTAVWTSGGYRKRDYWGQATQVTVSS | high polyreactivity |
| QLQLEESGGGLVQAGGSLRLSCAASGRTFESYGMGLYRQATGKERELVAAISHNADSTYADSVKGRFTISRDNAKNTVYLQMNSLKSEDTAVYYCNAETPVRSDYWGQGTQVTVSS | low polyreactivity |
| QLQLEESGRGLVQAGGSLRLSCAASGSIFYSNTMGWYRQAPGKERELVAAISTSDTSTYYADSVKGRFTISREKAKNTVYLQMNSLKPEDTAVYYCNAVGSIVLYGYWGQGTQVTVSS | low polyreactivity |
| QLQLGESGGGLVQAGGSLRLSCAASGSTFIVYAMGWYRQAPGKVRELVAAISSDGSTYYADSVKGRFTISRDNAKNTVYLQMNRLKPEYTAVYYCAAYVYDADTGYDYWGQGTQVTVSS | low polyreactivity |
| QLQLHESGGGLVQAGGCLSCTASGTIFGQGDMGWYRQAPGKERELVATINDGASTYYADSVKGRFTISRDKAKNTVYLKKNSLKPDDNAVYYCAVFTDITTYFGYWGQGTQVTVSS | low polyreactivity |
